{"source": "paper PMC3496659", "about": "“Analysis of the sulfur-regulated control of the cystathionine γ-lyase gene of Neurospora crassa”", "binders": {"B1": {"name": "cys-16+ Site 3 (dsDNA)", "DNA 1": "AACCTGAATTGCGCCATAGCCAAA", "DNA 2": "TTTGGCTATGGCGCAATTCAGGTT"}}, "target": "T1, CYS3 transcriptional activator (Neurospora crassa, UniProt P22697 1-236)", "T1 sequence": "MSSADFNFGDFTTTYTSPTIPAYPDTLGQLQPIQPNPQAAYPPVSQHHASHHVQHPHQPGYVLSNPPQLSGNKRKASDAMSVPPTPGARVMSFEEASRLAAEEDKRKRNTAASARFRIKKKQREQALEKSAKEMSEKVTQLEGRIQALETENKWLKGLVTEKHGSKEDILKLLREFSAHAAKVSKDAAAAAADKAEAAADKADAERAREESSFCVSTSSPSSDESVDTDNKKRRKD", "experiment": "EMSA; Binding buffer not given (refs 14,20); 4% PAGE in 50 mM Tris-80 mM glycine-2 mM EDTA pH 8.5, 20 mA, 4 C", "details": "protein: recombinant; chain copies: 2; label: 32P (T4 PNK); blunt", "data": [{"binder": "B1", "values": [{"measurement": "binding result", "value": "binds"}]}]}
